Tested on: MS2 coat protein
Experiment: apparent KD of MS2 coat protein; designed switch direction (-1 OFF switch, 1 ON switch): -1; higher = weaker reporter binding
Procedure, shortened: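 For each design, the apparent KD is the median over clusters of curves fitted to normalised cluster fluorescence. Clusters held RNA switches with common flanks, transcribed on Illumina chips by stalled E. coli RNA polymerase. These were titrated with SNAP-549-labelled MS2 coat protein, doubling from 0.7 or 1.5 nM to 3 µM, without input, with 200 uM small-molecule ligand, or with an oligonucleotide input.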

[1] = Eterna round: R95, input ligand: FMN 200 uM
[2] = Eterna round: R95, input ligand: microRNA oligo, concentration not stated
[3] = Eterna round: R95, input ligand: none
[4] = input ligand: microRNA oligo, concentration not stated

UCAUGUUUAGAGGAUAUGAUUACUUUAGAGUAAUCAGAAGGCUAGACAUGAGGAUCACCCAUGUCAUAACAUGA [Exclusion 6 - B - 15:a] (puzzle: Exclusion 6)
apparent KD of MS2 coat protein [1]: 38.3 nM
apparent KD of MS2 coat protein [2]: 62 nM
apparent KD of MS2 coat protein [3]: 54.3 nM

UCCAGCAUACGGAGAUCCAACAUGAGGAUCACCCAUGUCUGGAAAGCUUUUUGCUUGUCUUAUCCUCCUCUGUGUGC [Design #6] (Eterna round: R97, puzzle: Sensor, turn-off variant 1)
apparent KD of MS2 coat protein (input ligand: FMN 200 uM): 22.5 nM
apparent KD of MS2 coat protein (input ligand: none): 22.9 nM

UCCAGGCGAGGAUAUACAAAGAUUUUUUCGUUUAGUCUCGAACAUGAGGAUCACCCAUGUAGAAGGUGCUUCAC [JR_Ex2_Sub011] (Eterna round: R97, puzzle: Exclusion 2)
apparent KD of MS2 coat protein (input ligand: FMN 200 uM): 46.6 nM
apparent KD of MS2 coat protein (input ligand: none): 48.3 nM

UCCCAACAUGAGGAUCACCCAUGUAAGGAUAUCCAUGGACGACGGCAUUGUUCCCGGCGGAGAAGGUGCAUGGU [EX1 B.21] (Eterna round: R97, puzzle: Exclusion 1)
apparent KD of MS2 coat protein (input ligand: FMN 200 uM): 46.4 nM
apparent KD of MS2 coat protein (input ligand: none): 27.6 nM

UCCGAACAUGAGGAUCACCCAUGUCAGGAUAUUCGGUUACGUGACAAAUAGUACUAACGAAGAAGGGACAUGCU [Eternabot (L2) Solution 26] (Eterna round: R97, puzzle: Exclusion 1)
apparent KD of MS2 coat protein (input ligand: FMN 200 uM): 79.1 nM
apparent KD of MS2 coat protein (input ligand: none): 27.7 nM

UCCUCACAUGAGGAUCACCCAUGUCAGGAUAUGCGCGGCCAAAAGGGCUGCUAAGGCAGCAGAAGGGACGUGAA [Rarequtece] (puzzle: Exclusion 1)
apparent KD of MS2 coat protein [1]: 18.7 nM
apparent KD of MS2 coat protein [2]: 14.1 nM
apparent KD of MS2 coat protein [3]: 15 nM

UCCUCACUUGAGGAUCACCCAAGUCAGGAUAUUCACUGAACUGCGUAACAGUUCGGCCGAAGAAGGGAUUCGGG [Veatorma] (Eterna round: R97, puzzle: Exclusion 1)
apparent KD of MS2 coat protein (input ligand: FMN 200 uM): 259 nM
apparent KD of MS2 coat protein (input ligand: none): 75 nM

UCGAUGCGAGGAUAUACUAAGGCAACUACUGCAGCUCAAAAACAUGAGGAUCACCCAUGUAGAAGGCGCAUAUA [JR_Exc002_Sub304] (Eterna round: R96, puzzle: Exclusion 2)
apparent KD of MS2 coat protein [4]: 12.9 nM

UCGAUGUGAGGAUAUAUAUGCAGUAGUCCUUGUGUUUUAUAACUUGAGGAUCACCCAAGUAGAAGGCGCGACGU [JR_Ex2_Sub059] (Eterna round: R97, puzzle: Exclusion 2)
apparent KD of MS2 coat protein (input ligand: FMN 200 uM): 37 nM
apparent KD of MS2 coat protein (input ligand: none): 33.5 nM

UCGCUGCGAGGAUAUACAUGAGGAUCACCCAUGUACGGGUCCGGGUCUUCGUCCAUUAGUAGAAGGCGCAGUGA [JL Laongeedie mod 2] (puzzle: Exclusion 3)
apparent KD of MS2 coat protein [2]: 47.7 nM

UCGGCGCGAGGAUAUACGUUUGCUUUUUAGGGUCGUGGCGUACAUGAGGAUCACCCAUGUAGAAGGCGCGCCGC [Apr-15 SS2-29] (puzzle: Exclusion 2)
apparent KD of MS2 coat protein [2]: 14.6 nM

UCGGCGCGAGGAUAUACGUUUGCUUUUUUUUGUUUUUGUGUACAUGAGGAUCACCCAUGUAGAAGGCGCGCCGC [Apr-15 SS2-21] (puzzle: Exclusion 2)
apparent KD of MS2 coat protein [2]: 22 nM

UCGUGGUAACUCAGCAGUUUCCUGAGCGGAGGAACUUUGACAUGAGGAUCACCCAUGUUGCUUUUUGCUCAUCUUAA [JR_SV3TOV2_Sub042] (puzzle: Sensor v3, turn-off variant 2)
apparent KD of MS2 coat protein [1]: 20.9 nM
apparent KD of MS2 coat protein [2]: 40.3 nM
apparent KD of MS2 coat protein [3]: 16.1 nM

UCGUUCCGUGUAGGAUAUUGGCCUCCCUCGGGCCGAGAAGGACAUGAGGAUCACCCAUGUAUGUUAUUAUCGCGCGUGGCGCAU [Design 89] (Eterna round: R96, puzzle: Exclusion NG 1)
apparent KD of MS2 coat protein (input ligand: FMN 200 uM): 113 nM
apparent KD of MS2 coat protein [4]: 14.5 nM
apparent KD of MS2 coat protein (input ligand: none): 20.8 nM

UCGUUCCGUGUAGGAUAUUGGCCUUCCUUGGGCCGAGAAGGACAUGAGGAUCACCCAUGUAUGUUAUUAUCGCGCGUGGCGCAU [Design 87] (Eterna round: R96, puzzle: Exclusion NG 1)
apparent KD of MS2 coat protein (input ligand: FMN 200 uM): 97.1 nM
apparent KD of MS2 coat protein [4]: 13.3 nM
apparent KD of MS2 coat protein (input ligand: none): 18.6 nM

UCGUUGUAAAUCAGGUGAUGUCUGUUAGGAUGGACUUUGACAUGAGGAUCACCCAUGUUGCUUUUUGCCCGUCUUAA [JR_SV3TOV2_Sub045] (puzzle: Sensor v3, turn-off variant 2)
apparent KD of MS2 coat protein [1]: 33.6 nM
apparent KD of MS2 coat protein [2]: 68.5 nM
apparent KD of MS2 coat protein [3]: 38.4 nM

UCUCGCGGGCAAGGAUAUCCUACAUUGUUCUGGCCCGGGCAUGUUACAUGAGGAUCACCCAUGUGGGAGAAGGUGCGCCAGGGC [Design 35] (Eterna round: R96, puzzle: Exclusion NG 2)
apparent KD of MS2 coat protein (input ligand: FMN 200 uM): 29.9 nM
apparent KD of MS2 coat protein [4]: 18.9 nM
apparent KD of MS2 coat protein (input ligand: none): 30.3 nM

UCUGGUCGAGGAUAUACAUGAGGAUCACCCAUGUUGAUCAACUGCCGAUAGGCAGAAUGUAGAAGGCGACCAGA [E3/7-A3] (Eterna round: R97, puzzle: Exclusion 3)
apparent KD of MS2 coat protein (input ligand: FMN 200 uM): 176 nM
apparent KD of MS2 coat protein (input ligand: none): 865 nM

UCUGUUGAAGGAUAUGCGUAACGAGUUACGGCUCAAGGUCUACAUGAGGAUCACCCAUGUAGAAGGUCAUCAGA [EX2 #71] (Eterna round: R97, puzzle: Exclusion 2)
apparent KD of MS2 coat protein (input ligand: FMN 200 uM): 19.5 nM
apparent KD of MS2 coat protein (input ligand: none): 17.4 nM

UCUUAUUGAGGAUAUACAUUAAAAUACAUGAGGAUCACCCAUGUUCUUCAAUGUAUAUAUGUAGAAGGCAGAAGAU [Mat - Exclusion 5 - JL Mod - D26] (Eterna round: R97, puzzle: Exclusion 5)
apparent KD of MS2 coat protein (input ligand: FMN 200 uM): 155 nM
apparent KD of MS2 coat protein (input ligand: none): 36.9 nM

UCUUAUUGCAAGGAUAUGCAAAUUAUUUUUUAAGCAGAAGGUGCAACAUGAGGAUCACCCAUGUUUCCGGGCAA [JR_E6_Sub038] (puzzle: Exclusion 6)
apparent KD of MS2 coat protein [2]: 16.8 nM

UGAAAACAUGAGGAUCACCCAUGUAAGGAUAUGCAAAAGGAUAUAGAAGGAAAAAAAAGCAGAAGGUACAAAGG [salish99-ex1_r3_095] (puzzle: Exclusion 1)
apparent KD of MS2 coat protein [1]: 99.4 nM
apparent KD of MS2 coat protein [2]: 86.6 nM
apparent KD of MS2 coat protein [3]: 60.3 nM

UGAACAUGUGUCAGGAUAUCUGAUGUAAGUUAAUCGGAGAAGGGACAUGAGGAUCACCCAUGUCGUCGAAAGAU [Eternabot (L2) Solution 40] (Eterna round: R97, puzzle: Brourd's mod of Exclusion 4)
apparent KD of MS2 coat protein (input ligand: FMN 200 uM): 19.3 nM
apparent KD of MS2 coat protein (input ligand: none): 15.5 nM

UGAACCCAUGUUAGGAUAUCAGGCCGAGGAAGUUCUGAGAAGGGACAUGAGGAUCACCCAUGUAUAAAAGAAAC [Veontiinge] (Eterna round: R96, puzzle: Brourd's mod of Exclusion 4)
apparent KD of MS2 coat protein (input ligand: FMN 200 uM): 44.1 nM
apparent KD of MS2 coat protein [4]: 44.6 nM
apparent KD of MS2 coat protein (input ligand: none): 51.7 nM

UGAACCCAUGUUAGGAUAUCAGGCCGAGGAAGUUCUGAGAAGGGACAUGAGGAUCACCCAUGUAUAAAAGAAAC [Veontiinge] (puzzle: Brourd's mod of Exclusion 4)
apparent KD of MS2 coat protein [2]: 63.6 nM

UGAAGUAGAAACCGAUCCUACAUGAGGAUCACCCAUGUAGCAAGACGUGCACGCGAAGCUCGUCAGACUACCAGAAG [salish99_TOv1_r3_002] (puzzle: Sensor v3, turn-off variant 1)
apparent KD of MS2 coat protein [1]: 170 nM
apparent KD of MS2 coat protein [2]: 167 nM
apparent KD of MS2 coat protein [3]: 366 nM

UGAAGUAGAGGAUAUACGUGGAAAUAGAUUCAUGUUAAUCUACAUGAGGAUCACCCAUGUAGAAGGCUAUAGAU [JR_Ex2_Sub074] (Eterna round: R97, puzzle: Exclusion 2)
apparent KD of MS2 coat protein (input ligand: FMN 200 uM): 69.3 nM
apparent KD of MS2 coat protein (input ligand: none): 24.3 nM

UGACGAGUAGGAUAUUGGACUUGCGACAUGAGGAUCACCCAUGUGACGUCAACGUGGCACCAAGAAGGGCUACGUC [Gelareusdi] (Eterna round: R96, puzzle: Exclusion 5)
apparent KD of MS2 coat protein (input ligand: FMN 200 uM): 53.4 nM
apparent KD of MS2 coat protein [4]: 49.3 nM
apparent KD of MS2 coat protein (input ligand: none): 63.3 nM

UGACGAGUAGGAUAUUGGACUUGCGACAUGAGGAUCACCCAUGUGACGUCAACGUGGCACCAAGAAGGGCUACGUC [Gelareusdi] (puzzle: Exclusion 5)
apparent KD of MS2 coat protein [2]: 47.7 nM

UGAGUGCUGCGAGGAUAUACAUGAGGAUCACCCAUGUAAUCGUCUGAGGCAAAGCCUCAGACGAAGUAGAAGGCGCAGUACUCU [Mat - Exclusion NG 2 - Mod of JL - D26] (Eterna round: R96, puzzle: Exclusion NG 2)
apparent KD of MS2 coat protein (input ligand: FMN 200 uM): 15.5 nM
apparent KD of MS2 coat protein [4]: 11.5 nM
apparent KD of MS2 coat protein (input ligand: none): 17.2 nM

UGAGUGCUGCGAGGAUAUACAUGAGGAUCACCCAUGUUUUCCUGUGAGGCAUAGCCUCACAGGAUGUAGAAGGCGCAGUACUCU [Mat - Exclusion NG 2 - Mod of JL - D28] (Eterna round: R96, puzzle: Exclusion NG 2)
apparent KD of MS2 coat protein (input ligand: FMN 200 uM): 10.6 nM
apparent KD of MS2 coat protein [4]: 8.03 nM
apparent KD of MS2 coat protein (input ligand: none): 13.8 nM
